Reference: patent US6500929B1

Tests used:
[1] = molecular target: C1 (a first component of complement) of human serum (human) (UniProt P09871)
[2] = molecular target: C1 (a first component of complement) of human serum (human) (UniProt P09871); remark: listed apart in the source

“FLAG-C1-INH-GPI (C1-INH-GPI with a FLAG epitope tag added to the C terminal of the signal peptide)” was tested, and the complement-mediated lysis of swine vascular endothelial cells (SEC) by 20% and 40% human serum [1] was 20% and the complement-mediated lysis of CHO cells (antibody against CHO cells, then 40% human serum) [2] was 20%.
